Data from US20090041770A1.

Biological target: human FcRn fused to a His-tag and glutathione S transferase (FcRn-His-GST), complex of FcRn heavy chain with beta-2-microglobulin (human) (UniProt P55899)
Test: AlphaScreen competition

FcRn Binding ratio Variant / WT | Substance
1.7 | V264I/I332E (antibody)
1.45 | P228Y (antibody)
2.57 | D249Y (antibody)
1.9 | L234Y (antibody)
3.91 | P331F (antibody)
1.3 | P238W (antibody)
1.16 | V282G (antibody)
1.01 | K274M (antibody)
25.3 | A330F (antibody)
1.16 | R255E (antibody)
1.82 | E272W (antibody)
1.33 | E283P (antibody)
1.05 | E233R (antibody)
3.82 | Q295T (antibody)
1.15 | V284T (antibody)
1.48 | G237H (antibody)
1.06 | P271V (antibody)

FcRn Binding ratio Variant / WT | Substance
1.63 | V303E (antibody)
1.81 | E272L (antibody)
1.67 | R292D (antibody)
1.24 | P291Q (antibody)
6.25 | E283H (antibody)
1.35 | T335M (antibody)
1.33 | S239Q/I332E (antibody)
1.46 | G281Y (antibody)
1.12 | F241W/F243W (antibody)
1.51 | V284L (antibody)
2.03 | T299H (antibody)
6.06 | P331Y (antibody)
4.6 | S239L (antibody)
2.47 | K246Y (antibody)
1.28 | V240I (antibody)
2.33 | P238M (antibody)
1.45 | T335P (antibody)

Continued, substance first:

Substance | FcRn Binding ratio Variant / WT
Y278L (antibody) | 1.74
T335N (antibody) | 1.23
P329W (antibody) | 3.16
H285Q (antibody) | 1.38
G236W (antibody) | 1.52
S239E/V264I/S298A/A330Y/I332E (antibody) | 10.1
S304N (antibody) | 1.19
L328F (antibody) | 2.06
S239V (antibody) | 1.17
Y278D (antibody) | 1.79
S267E (antibody) | 2.24
Y300A (antibody) | 1.04
E272V (antibody) | 1.77
D265F/N297E/I332E (antibody) | 1.38
H285Y (antibody) | 1.25
F241E (antibody) | 1.09

Substance | FcRn Binding ratio Variant / WT
H224E (antibody) | 5.11
L328D/I332E (antibody) | 11.8
L234D (antibody) | 1.54
E283R (antibody) | 1.86
S239E/I332E (antibody) | 1.34
R301E (antibody) | 2.92
L235T (antibody) | 1.65
E294K (antibody) | 1.16
G236H (antibody) | 1.48
L328I/I332E (antibody) | 2.21
S267L/A327S (antibody) | 1.05
S239D/E272I/I332E (antibody) | 1.81
P271Y (antibody) | 1.48
T260Y (antibody) | 7.51
A330W (antibody) | 1.02
T335V (antibody) | 1.25
